biological target: EPHB1 (UniProt P54762); assay: phosphorylation enrichment, bacterial display (enrichment ratio); higher = better substrate or ligand; peptides without Tyr show the background
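Note: 11-residue human phosphosite peptides and single-mutation variants displayed on the E. coli surface, counted by deep sequencing, each peptide's frequency after selection divided by its frequency in the unselected input library; frequency after pTyr selection over input frequency; kinase dosed for 20-30% of maximal phosphorylation in three min.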

Sequence of EPHB1 (P54762 whole entry, looked up): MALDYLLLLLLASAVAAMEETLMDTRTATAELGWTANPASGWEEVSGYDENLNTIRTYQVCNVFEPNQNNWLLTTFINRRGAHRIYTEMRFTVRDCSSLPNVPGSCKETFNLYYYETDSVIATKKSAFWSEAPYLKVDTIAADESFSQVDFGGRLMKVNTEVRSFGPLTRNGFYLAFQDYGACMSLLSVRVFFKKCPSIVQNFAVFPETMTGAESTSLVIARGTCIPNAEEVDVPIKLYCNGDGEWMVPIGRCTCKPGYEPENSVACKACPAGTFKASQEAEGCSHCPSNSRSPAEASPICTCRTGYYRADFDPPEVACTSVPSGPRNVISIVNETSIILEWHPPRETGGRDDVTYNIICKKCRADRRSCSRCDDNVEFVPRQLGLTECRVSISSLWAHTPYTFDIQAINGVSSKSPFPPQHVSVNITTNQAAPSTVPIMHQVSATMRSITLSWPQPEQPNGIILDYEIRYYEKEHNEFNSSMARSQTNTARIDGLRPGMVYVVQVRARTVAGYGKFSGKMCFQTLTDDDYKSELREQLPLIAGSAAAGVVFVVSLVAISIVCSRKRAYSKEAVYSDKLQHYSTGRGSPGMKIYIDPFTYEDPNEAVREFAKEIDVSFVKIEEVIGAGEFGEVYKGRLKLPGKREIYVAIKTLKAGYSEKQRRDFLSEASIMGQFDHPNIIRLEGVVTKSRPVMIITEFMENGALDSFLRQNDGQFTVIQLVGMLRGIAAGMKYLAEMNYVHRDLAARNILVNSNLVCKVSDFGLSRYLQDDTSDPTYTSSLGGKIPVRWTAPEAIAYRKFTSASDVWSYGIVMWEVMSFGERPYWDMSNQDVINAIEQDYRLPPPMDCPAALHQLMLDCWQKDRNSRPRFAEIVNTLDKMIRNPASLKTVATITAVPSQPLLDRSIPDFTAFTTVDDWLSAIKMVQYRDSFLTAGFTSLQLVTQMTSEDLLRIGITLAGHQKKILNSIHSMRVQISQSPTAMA

| Sequence | phosphorylation enrichment |
| --- | --- |
| MKDLTYSSLCF [ALOX5_Y446_A447S] | 2.89 |
| TMKSRYMELYD [BBS2_Y644] | 0.535 |
| FETVKYFNNER [ABCB7_Y345_YF] | 0.564 |
| PPNSPYMGSSP [KCNT1_Y740_I741M] | 0.497 |
| ETSHNYHKFDS [MATR3_Y243] | 0.416 |
| LQKPMYEVQWK [KIT_Y553] | 2.63 |
| HNLDYYKETTN [FGFR3_Y648_K650E] | 0.633 |
| CPFNLYAEQFS [HGD_Y40_L44F_YF] | 2.19 |
| SVVLPYEPPEV [TP53_Y220_V218L] | 0.686 |
| RFGKVYKGHLF [ROR2_Y488] | 0.377 |
| SRNSKYNAEST [PSEN1_Y315_K311R] | 0.328 |
| ASYGPNTRVQS [FOXL2_Y258_Y258N] | 0.474 |
| SRGHQYQELPR [KCNH2_Y1009_R1007H] | 0.466 |
| NTFEKYWPFFQ [GATM_Y103_YF] | 0.488 |
| QRASDYFSQQM [GBP6_Y333_A331S_YF] | 1.56 |
| DAGTDYVGISR [FREM2_Y2061] | 0.445 |
| LFSGDCFRIQG [DDR2_Y740_Y740C_YF] | 0.554 |
| APTSGYREFVH [IL4R_Y575_Q576R] | 0.378 |
| TEGNEYVFRVA | 0.593 |
| LDFPEYDGVDR [CASQ1_Y43] | 0.633 |
| EYQKKYSDADI [CKAP5_Y1860_K1857Q] | 0.491 |
| EEGESDVCSSD [DCX_Y125_Y125D] | 0.525 |
| GLRSYYETSKM [MAGED2_Y449] | 0.475 |
| RLRVVYPWTQR [HBB_Y36_L33R] | 0.367 |
| YIPFRYPKEFQ [IDS_Y234_H229Y] | 0.464 |
| TGNGYYFRVFS [MYBPC3_Y1136_I1131T] | 0.707 |
| IITDFYVDMKF [MPP4_Y567_V562I_YF] | 1.41 |
| WVYNHYRWIIW [BRCA2_Y2624] | 0.521 |
| FYNSEYGELSE [FLT4_Y1337] | 0.729 |

biological target: Jak2 (UniProt O60674); assay: as above
Sequence (O60674 whole entry, looked up): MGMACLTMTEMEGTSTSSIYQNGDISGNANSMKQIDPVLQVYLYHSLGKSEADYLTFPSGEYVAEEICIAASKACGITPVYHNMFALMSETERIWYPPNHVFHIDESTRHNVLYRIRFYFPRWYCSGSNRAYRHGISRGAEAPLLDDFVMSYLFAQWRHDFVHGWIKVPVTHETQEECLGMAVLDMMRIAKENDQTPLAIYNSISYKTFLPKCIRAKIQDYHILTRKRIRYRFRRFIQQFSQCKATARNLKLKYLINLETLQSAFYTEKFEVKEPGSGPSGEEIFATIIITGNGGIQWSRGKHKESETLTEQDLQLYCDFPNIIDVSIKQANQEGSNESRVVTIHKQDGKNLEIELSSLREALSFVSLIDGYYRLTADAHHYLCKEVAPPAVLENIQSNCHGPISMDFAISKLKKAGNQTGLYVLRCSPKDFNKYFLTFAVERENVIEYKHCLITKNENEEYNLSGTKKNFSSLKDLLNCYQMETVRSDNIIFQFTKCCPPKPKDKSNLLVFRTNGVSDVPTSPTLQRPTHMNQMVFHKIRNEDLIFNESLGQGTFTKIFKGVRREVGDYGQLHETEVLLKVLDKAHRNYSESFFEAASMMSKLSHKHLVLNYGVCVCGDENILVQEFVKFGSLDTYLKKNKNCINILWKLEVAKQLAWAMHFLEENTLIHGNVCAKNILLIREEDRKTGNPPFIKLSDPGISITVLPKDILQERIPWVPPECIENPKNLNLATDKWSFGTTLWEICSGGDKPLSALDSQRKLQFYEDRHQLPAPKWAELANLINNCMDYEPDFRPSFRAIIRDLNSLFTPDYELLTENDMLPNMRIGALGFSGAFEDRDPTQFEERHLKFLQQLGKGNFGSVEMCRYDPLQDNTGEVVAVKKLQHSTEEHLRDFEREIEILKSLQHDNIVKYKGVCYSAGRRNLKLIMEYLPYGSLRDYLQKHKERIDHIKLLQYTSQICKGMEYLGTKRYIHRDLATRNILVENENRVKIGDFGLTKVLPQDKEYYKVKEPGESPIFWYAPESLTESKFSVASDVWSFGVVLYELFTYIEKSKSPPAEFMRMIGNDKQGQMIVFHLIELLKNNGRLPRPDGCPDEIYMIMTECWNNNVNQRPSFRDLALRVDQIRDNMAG

| Sequence | phosphorylation enrichment |
| --- | --- |
| MKDLTYSSLCF [ALOX5_Y446_A447S] | 1.21 |
| TMKSRYMELYD [BBS2_Y644] | 0.808 |
| FETVKYFNNER [ABCB7_Y345_YF] | 0.702 |
| PPNSPYMGSSP [KCNT1_Y740_I741M] | 0.825 |
| ETSHNYHKFDS [MATR3_Y243] | 0.662 |
| LQKPMYEVQWK [KIT_Y553] | 1.42 |
| HNLDYYKETTN [FGFR3_Y648_K650E] | 1.01 |
| CPFNLYAEQFS [HGD_Y40_L44F_YF] | 1.34 |
| SVVLPYEPPEV [TP53_Y220_V218L] | 0.98 |
| RFGKVYKGHLF [ROR2_Y488] | 0.803 |
| SRNSKYNAEST [PSEN1_Y315_K311R] | 0.489 |
| ASYGPNTRVQS [FOXL2_Y258_Y258N] | 0.515 |
| SRGHQYQELPR [KCNH2_Y1009_R1007H] | 0.721 |
| NTFEKYWPFFQ [GATM_Y103_YF] | 0.898 |
| QRASDYFSQQM [GBP6_Y333_A331S_YF] | 1.02 |
| DAGTDYVGISR [FREM2_Y2061] | 0.496 |
| LFSGDCFRIQG [DDR2_Y740_Y740C_YF] | 0.764 |
| APTSGYREFVH [IL4R_Y575_Q576R] | 0.441 |
| TEGNEYVFRVA | 0.949 |
| LDFPEYDGVDR [CASQ1_Y43] | 2 |
| EYQKKYSDADI [CKAP5_Y1860_K1857Q] | 0.841 |
| EEGESDVCSSD [DCX_Y125_Y125D] | 0.797 |
| GLRSYYETSKM [MAGED2_Y449] | 0.784 |
| RLRVVYPWTQR [HBB_Y36_L33R] | 0.494 |
| YIPFRYPKEFQ [IDS_Y234_H229Y] | 0.477 |
| TGNGYYFRVFS [MYBPC3_Y1136_I1131T] | 1.41 |
| IITDFYVDMKF [MPP4_Y567_V562I_YF] | 1.75 |
| WVYNHYRWIIW [BRCA2_Y2624] | 1.14 |
| FYNSEYGELSE [FLT4_Y1337] | 1.58 |

tested on: c-Src; assay: as above

| Sequence | phosphorylation enrichment |
| --- | --- |
| MKDLTYSSLCF [ALOX5_Y446_A447S] | 5.91 |
| TMKSRYMELYD [BBS2_Y644] | 0.73 |
| FETVKYFNNER [ABCB7_Y345_YF] | 0.345 |
| PPNSPYMGSSP [KCNT1_Y740_I741M] | 0.59 |
| ETSHNYHKFDS [MATR3_Y243] | 0.475 |
| LQKPMYEVQWK [KIT_Y553] | 0.617 |
| HNLDYYKETTN [FGFR3_Y648_K650E] | 0.47 |
| CPFNLYAEQFS [HGD_Y40_L44F_YF] | 1.49 |
| SVVLPYEPPEV [TP53_Y220_V218L] | 0.592 |
| RFGKVYKGHLF [ROR2_Y488] | 0.86 |
| SRNSKYNAEST [PSEN1_Y315_K311R] | 0.378 |
| ASYGPNTRVQS [FOXL2_Y258_Y258N] | 0.478 |
| SRGHQYQELPR [KCNH2_Y1009_R1007H] | 0.35 |
| NTFEKYWPFFQ [GATM_Y103_YF] | 0.935 |
| QRASDYFSQQM [GBP6_Y333_A331S_YF] | 0.632 |
| DAGTDYVGISR [FREM2_Y2061] | 0.459 |
| LFSGDCFRIQG [DDR2_Y740_Y740C_YF] | 0.459 |
| APTSGYREFVH [IL4R_Y575_Q576R] | 0.397 |
| TEGNEYVFRVA | 0.528 |
| LDFPEYDGVDR [CASQ1_Y43] | 1.5 |
| EYQKKYSDADI [CKAP5_Y1860_K1857Q] | 0.45 |
| EEGESDVCSSD [DCX_Y125_Y125D] | 0.518 |
| GLRSYYETSKM [MAGED2_Y449] | 0.591 |
| RLRVVYPWTQR [HBB_Y36_L33R] | 0.382 |
| YIPFRYPKEFQ [IDS_Y234_H229Y] | 0.768 |
| TGNGYYFRVFS [MYBPC3_Y1136_I1131T] | 0.332 |
| IITDFYVDMKF [MPP4_Y567_V562I_YF] | 0.58 |
| WVYNHYRWIIW [BRCA2_Y2624] | 0.415 |
| FYNSEYGELSE [FLT4_Y1337] | 1.69 |

tested on: AncSZ; assay: as above

| Sequence | phosphorylation enrichment |
| --- | --- |
| MKDLTYSSLCF [ALOX5_Y446_A447S] | 1.48 |
| TMKSRYMELYD [BBS2_Y644] | 0.812 |
| FETVKYFNNER [ABCB7_Y345_YF] | 0.828 |
| PPNSPYMGSSP [KCNT1_Y740_I741M] | 1.01 |
| ETSHNYHKFDS [MATR3_Y243] | 0.463 |
| LQKPMYEVQWK [KIT_Y553] | 1.29 |
| HNLDYYKETTN [FGFR3_Y648_K650E] | 1.25 |
| CPFNLYAEQFS [HGD_Y40_L44F_YF] | 1.45 |
| SVVLPYEPPEV [TP53_Y220_V218L] | 1.47 |
| RFGKVYKGHLF [ROR2_Y488] | 0.806 |
| SRNSKYNAEST [PSEN1_Y315_K311R] | 0.512 |
| ASYGPNTRVQS [FOXL2_Y258_Y258N] | 0.537 |
| SRGHQYQELPR [KCNH2_Y1009_R1007H] | 0.527 |
| NTFEKYWPFFQ [GATM_Y103_YF] | 0.987 |
| QRASDYFSQQM [GBP6_Y333_A331S_YF] | 1.29 |
| DAGTDYVGISR [FREM2_Y2061] | 0.606 |
| LFSGDCFRIQG [DDR2_Y740_Y740C_YF] | 0.931 |
| APTSGYREFVH [IL4R_Y575_Q576R] | 0.681 |
| TEGNEYVFRVA | 1.08 |
| LDFPEYDGVDR [CASQ1_Y43] | 2.6 |
| EYQKKYSDADI [CKAP5_Y1860_K1857Q] | 0.913 |
| EEGESDVCSSD [DCX_Y125_Y125D] | 1.04 |
| GLRSYYETSKM [MAGED2_Y449] | 0.592 |
| RLRVVYPWTQR [HBB_Y36_L33R] | 0.688 |
| YIPFRYPKEFQ [IDS_Y234_H229Y] | 0.777 |
| TGNGYYFRVFS [MYBPC3_Y1136_I1131T] | 1.04 |
| IITDFYVDMKF [MPP4_Y567_V562I_YF] | 1.31 |
| WVYNHYRWIIW [BRCA2_Y2624] | 0.937 |
| FYNSEYGELSE [FLT4_Y1337] | 1.47 |
